This is an account of results in patent publication US20230348560A1.

For this assay, the target named is HLA-G1 isoform stably expressed on THP1 cells (human) (UniProt P17693). As to the kind of experiment: cell-based or functional assay.

As to “full length ILT2 (pNT-110 SFG-ILT2-T2A-ΔCD19) (from UniProt Q8NHL6 24-650) (receptor)”, the luciferase activity of THP1-HLA-G1-GFPffluc targets after 24 h coculture (E:T 5:1 and 1:1) was > 100000 light units.
